# The supplement of paper PMC10065799, “High-throughput profiling of sequence recognition by tyrosine kinases and SH2 domains using bacterial peptide display” (eLife, 2023)
# What was measured:
# [1] = biological target: FGFR1 (UniProt P11362); assay: phosphorylation enrichment, bacterial display (enrichment ratio); higher = better substrate or ligand; peptides without Tyr show the background
# [2] = system: Fer (mouse); assay: as above
# [3] = biological target: Fyn (UniProt P06241); assay: as above
# [4] = system: AncSZ; assay: as above
# [5] = system: c-Src; assay: as above
# [6] = biological target: EPHB1 (UniProt P54762); assay: as above
# [7] = biological target: MERTK (UniProt Q12866); assay: as above
# [8] = biological target: Jak2 (UniProt O60674); assay: as above
# [9] = biological target: Hck (UniProt P08631); assay: as above
# [10] = system: c-Abl (mouse); assay: as above
# [11] = biological target: Fes (UniProt P07332); assay: as above
# [12] = biological target: EPHB2 (UniProt P29323); assay: as above
# [13] = biological target: FGFR3 (UniProt P22607); assay: as above
# [14] = biological target: Grb2 SH2 (UniProt P62993); assay: SH2 binding enrichment of the phosphorylated peptide, bacterial display (enrichment ratio); higher = better substrate or ligand; peptides without Tyr show the background
# [15] = biological target: c-Src SH2; assay: as above
# [16] = biological target: SHP2-C SH2; assay: as above
# 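Throughout, for SH2 binding enrichment of the phosphorylated peptide, bacterial display: peptide library displayed on the E. coli surface as eCPX fusions, selected cells deep-sequenced, score is each peptide's frequency after selection divided by its frequency in the input.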
# 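Throughout, for phosphorylation enrichment, bacterial display: 11-residue human phosphosite peptides and single-mutation variants displayed on the E. coli surface, counted by deep sequencing, each peptide's frequency after selection divided by its frequency in the unselected input library; frequency after pTyr selection over input frequency; kinase dosed for 20-30% of maximal phosphorylation in three min.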
# Grb2 SH2, sequence (P62993 whole entry, looked up): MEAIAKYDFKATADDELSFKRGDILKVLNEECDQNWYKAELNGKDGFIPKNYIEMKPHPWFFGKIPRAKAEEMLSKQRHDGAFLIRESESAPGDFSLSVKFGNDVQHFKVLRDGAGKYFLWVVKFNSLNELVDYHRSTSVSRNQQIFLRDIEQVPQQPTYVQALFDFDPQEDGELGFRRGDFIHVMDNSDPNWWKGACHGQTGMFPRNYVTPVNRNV
# FGFR3, sequence (P22607 whole entry, looked up): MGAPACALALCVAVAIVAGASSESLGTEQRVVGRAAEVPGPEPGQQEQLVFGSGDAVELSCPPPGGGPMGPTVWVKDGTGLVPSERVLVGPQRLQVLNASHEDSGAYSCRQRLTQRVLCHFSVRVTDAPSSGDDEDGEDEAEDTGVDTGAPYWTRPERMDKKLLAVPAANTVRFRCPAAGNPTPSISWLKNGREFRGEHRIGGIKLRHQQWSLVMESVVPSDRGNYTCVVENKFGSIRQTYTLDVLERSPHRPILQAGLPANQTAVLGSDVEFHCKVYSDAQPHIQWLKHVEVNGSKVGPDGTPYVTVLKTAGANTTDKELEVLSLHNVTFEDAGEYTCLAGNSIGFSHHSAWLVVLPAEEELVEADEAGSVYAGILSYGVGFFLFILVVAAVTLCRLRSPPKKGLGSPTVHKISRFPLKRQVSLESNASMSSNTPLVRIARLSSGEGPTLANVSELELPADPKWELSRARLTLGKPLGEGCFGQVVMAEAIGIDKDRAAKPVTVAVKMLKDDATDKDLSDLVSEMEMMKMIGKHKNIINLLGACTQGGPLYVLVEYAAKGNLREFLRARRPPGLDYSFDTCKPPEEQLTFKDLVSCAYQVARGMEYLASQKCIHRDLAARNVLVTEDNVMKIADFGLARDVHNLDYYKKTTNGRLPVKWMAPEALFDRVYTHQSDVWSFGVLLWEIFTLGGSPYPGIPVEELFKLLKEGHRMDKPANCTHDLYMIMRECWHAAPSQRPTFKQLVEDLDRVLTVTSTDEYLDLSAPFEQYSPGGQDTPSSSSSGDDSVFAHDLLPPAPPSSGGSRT
# Fes, sequence (P07332 whole entry, looked up): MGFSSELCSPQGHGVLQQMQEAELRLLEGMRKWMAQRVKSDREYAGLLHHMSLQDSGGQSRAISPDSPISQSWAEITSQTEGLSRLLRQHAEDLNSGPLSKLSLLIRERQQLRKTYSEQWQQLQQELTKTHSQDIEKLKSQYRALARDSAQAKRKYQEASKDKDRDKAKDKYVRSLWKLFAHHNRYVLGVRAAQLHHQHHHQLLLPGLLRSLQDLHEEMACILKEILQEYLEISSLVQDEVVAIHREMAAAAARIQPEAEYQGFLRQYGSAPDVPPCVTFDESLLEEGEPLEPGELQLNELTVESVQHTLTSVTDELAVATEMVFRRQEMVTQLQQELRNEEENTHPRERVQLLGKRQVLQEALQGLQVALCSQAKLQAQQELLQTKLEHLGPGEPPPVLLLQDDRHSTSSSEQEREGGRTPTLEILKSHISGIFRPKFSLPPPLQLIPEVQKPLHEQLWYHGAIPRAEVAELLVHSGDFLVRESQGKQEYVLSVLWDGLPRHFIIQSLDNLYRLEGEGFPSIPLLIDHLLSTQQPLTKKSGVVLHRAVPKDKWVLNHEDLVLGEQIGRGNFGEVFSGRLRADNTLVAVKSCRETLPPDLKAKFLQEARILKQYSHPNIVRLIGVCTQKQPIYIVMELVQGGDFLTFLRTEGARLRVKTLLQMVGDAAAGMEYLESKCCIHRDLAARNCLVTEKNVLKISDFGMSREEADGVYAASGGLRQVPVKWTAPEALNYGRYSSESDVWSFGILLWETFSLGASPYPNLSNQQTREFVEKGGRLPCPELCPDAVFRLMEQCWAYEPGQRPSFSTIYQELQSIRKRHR
# EPHB1, sequence (P54762 whole entry, looked up): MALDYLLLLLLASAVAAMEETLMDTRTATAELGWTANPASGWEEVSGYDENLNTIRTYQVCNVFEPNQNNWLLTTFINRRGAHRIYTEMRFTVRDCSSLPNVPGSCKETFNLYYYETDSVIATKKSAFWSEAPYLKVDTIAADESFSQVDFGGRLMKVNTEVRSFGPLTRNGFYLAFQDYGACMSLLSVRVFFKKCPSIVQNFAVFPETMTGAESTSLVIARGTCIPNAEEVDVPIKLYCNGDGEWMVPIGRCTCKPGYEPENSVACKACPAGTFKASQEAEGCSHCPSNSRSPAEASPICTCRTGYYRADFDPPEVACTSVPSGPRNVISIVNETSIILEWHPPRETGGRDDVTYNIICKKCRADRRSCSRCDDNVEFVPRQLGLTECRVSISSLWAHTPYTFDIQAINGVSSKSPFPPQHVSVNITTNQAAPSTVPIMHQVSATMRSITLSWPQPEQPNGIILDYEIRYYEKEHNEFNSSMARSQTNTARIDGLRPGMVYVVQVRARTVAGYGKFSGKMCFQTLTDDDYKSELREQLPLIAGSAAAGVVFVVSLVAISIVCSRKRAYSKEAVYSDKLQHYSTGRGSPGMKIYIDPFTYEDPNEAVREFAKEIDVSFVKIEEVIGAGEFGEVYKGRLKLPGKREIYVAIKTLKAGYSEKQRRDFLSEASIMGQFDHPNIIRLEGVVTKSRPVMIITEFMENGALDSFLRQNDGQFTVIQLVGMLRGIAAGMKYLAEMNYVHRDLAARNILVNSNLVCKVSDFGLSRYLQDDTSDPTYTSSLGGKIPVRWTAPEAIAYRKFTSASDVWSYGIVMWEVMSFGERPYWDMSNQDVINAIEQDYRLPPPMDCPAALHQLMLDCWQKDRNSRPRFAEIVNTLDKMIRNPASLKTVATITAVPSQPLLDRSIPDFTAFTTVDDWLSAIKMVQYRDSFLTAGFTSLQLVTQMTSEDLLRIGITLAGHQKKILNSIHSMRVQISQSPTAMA
# MERTK, sequence (Q12866 whole entry, looked up): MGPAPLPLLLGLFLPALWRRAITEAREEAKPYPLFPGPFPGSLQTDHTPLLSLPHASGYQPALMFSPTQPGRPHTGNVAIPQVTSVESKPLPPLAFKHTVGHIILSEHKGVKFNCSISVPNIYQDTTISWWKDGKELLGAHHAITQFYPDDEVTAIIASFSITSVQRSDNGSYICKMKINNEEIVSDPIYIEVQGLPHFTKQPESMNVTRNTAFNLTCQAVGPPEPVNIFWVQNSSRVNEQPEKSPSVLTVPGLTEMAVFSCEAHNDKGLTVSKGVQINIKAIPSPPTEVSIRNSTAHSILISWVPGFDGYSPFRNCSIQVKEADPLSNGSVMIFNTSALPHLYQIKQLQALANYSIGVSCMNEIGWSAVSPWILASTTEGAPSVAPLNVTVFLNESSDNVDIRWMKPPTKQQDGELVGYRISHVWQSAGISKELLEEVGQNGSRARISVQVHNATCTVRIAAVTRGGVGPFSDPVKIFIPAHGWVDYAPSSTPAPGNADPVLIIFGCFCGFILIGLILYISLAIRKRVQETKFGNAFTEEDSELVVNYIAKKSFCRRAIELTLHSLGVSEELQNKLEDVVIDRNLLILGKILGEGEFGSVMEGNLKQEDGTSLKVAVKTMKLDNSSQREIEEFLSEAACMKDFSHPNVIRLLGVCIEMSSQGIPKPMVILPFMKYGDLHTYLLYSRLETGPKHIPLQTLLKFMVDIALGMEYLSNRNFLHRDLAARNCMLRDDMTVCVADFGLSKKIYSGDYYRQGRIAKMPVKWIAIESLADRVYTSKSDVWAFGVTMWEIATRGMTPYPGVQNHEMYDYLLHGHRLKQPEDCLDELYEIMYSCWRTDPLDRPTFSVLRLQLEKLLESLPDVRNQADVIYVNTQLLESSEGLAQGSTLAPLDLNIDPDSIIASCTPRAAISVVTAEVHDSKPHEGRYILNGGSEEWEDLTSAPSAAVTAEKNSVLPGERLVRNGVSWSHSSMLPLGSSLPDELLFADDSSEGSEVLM
# Jak2, sequence (O60674 whole entry, looked up): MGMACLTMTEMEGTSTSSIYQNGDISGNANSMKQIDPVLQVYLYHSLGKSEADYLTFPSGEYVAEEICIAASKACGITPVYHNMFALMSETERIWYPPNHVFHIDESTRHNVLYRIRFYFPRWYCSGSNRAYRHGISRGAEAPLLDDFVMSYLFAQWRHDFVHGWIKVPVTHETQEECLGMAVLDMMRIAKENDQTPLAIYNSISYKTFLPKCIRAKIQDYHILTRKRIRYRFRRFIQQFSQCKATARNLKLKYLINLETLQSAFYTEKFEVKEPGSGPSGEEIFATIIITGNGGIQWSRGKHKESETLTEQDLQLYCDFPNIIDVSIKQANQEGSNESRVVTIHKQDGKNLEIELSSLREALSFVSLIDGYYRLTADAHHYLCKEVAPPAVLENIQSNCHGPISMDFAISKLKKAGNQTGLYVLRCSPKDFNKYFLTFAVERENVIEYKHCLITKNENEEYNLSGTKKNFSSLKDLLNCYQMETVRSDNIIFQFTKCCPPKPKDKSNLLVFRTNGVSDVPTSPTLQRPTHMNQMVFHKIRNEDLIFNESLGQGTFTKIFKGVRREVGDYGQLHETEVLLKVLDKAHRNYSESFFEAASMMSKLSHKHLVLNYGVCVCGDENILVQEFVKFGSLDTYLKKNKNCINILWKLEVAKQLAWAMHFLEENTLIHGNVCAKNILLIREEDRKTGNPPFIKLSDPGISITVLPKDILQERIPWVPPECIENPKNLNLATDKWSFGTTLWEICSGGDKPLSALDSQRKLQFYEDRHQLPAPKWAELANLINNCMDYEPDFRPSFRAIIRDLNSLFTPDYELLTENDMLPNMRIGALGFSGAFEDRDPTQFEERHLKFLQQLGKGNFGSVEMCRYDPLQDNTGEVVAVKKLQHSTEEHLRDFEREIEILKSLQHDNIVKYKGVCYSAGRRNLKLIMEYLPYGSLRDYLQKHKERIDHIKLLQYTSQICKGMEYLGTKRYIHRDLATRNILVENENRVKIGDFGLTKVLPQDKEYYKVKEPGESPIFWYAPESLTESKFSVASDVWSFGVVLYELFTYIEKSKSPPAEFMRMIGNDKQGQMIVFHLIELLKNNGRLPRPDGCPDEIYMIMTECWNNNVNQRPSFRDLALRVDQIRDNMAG
Sequence,phosphorylation enrichment [1],phosphorylation enrichment [2],phosphorylation enrichment [3],phosphorylation enrichment [4],phosphorylation enrichment [5],phosphorylation enrichment [6],phosphorylation enrichment [7],phosphorylation enrichment [8],phosphorylation enrichment [9],phosphorylation enrichment [10],phosphorylation enrichment [11],phosphorylation enrichment [12],phosphorylation enrichment [13],SH2 binding enrichment [14],SH2 binding enrichment [15],SH2 binding enrichment [16]
FPPISYLHAIS [MVD_Y276_N278H],0.602,0.545,0.602,0.984,0.608,0.434,0.544,0.793,0.565,0.829,1,0.579,0.612,0.862,0.657,0.657
FPRTGYSVPFG [TGM1_Y370_L366P_YF],0.379,0.421,0.475,0.686,0.511,0.493,0.485,0.688,0.419,1.11,0.709,0.504,0.513,0.987,3.87,1.4
FQGGTYSKAST [FGG_Y380_YF],0.495,0.325,0.372,0.448,0.41,0.377,0.46,0.478,0.308,0.446,0.544,0.452,0.413,0.787,0.657,1.14
FRNKPYISWPS [CDC42BPB_Y1638_S1633Y_YF],0.408,0.366,0.345,0.457,0.445,0.255,0.417,0.424,0.414,0.36,0.552,0.33,0.427,1.99,1.6,1.77
FSIDFYRVGGH [NTRK2_Y707_T704I_YF],0.531,0.466,0.465,1.19,0.436,0.593,0.429,1.24,0.456,0.837,1.37,0.573,0.719,0.926,0.548,0.814
FSKDNYKRVTG [PANK2_Y405_YF],0.407,0.394,0.401,0.397,0.369,0.409,0.383,0.409,0.396,0.416,0.452,0.412,0.393,0.719,0.406,0.502
FSLIHYARIVD [MYH7_Y582_G584R],0.576,0.588,0.528,1.13,0.426,0.702,0.418,1.01,0.506,0.762,1.29,0.63,0.819,1.12,4.46,26.8
FSNKLHFQLEQ [PDPR_Y109_Y109H_YF],0.482,0.43,0.471,0.976,0.491,0.473,0.51,0.889,0.398,0.709,1.18,0.509,0.509,0.917,0.482,0.938
FSQNICIQNRN [PKP2_Y631_Y631C_YF],0.395,0.535,0.384,0.766,0.44,0.608,0.388,0.841,0.392,0.719,0.903,0.524,0.584,0.733,0.665,0.627
FSQQTYFPVSN [ABCD1_Y180_R182P_YF],4.99,0.494,0.889,1.1,1.95,0.946,3.42,5.51,2.5,0.723,1.01,0.908,3.8,0.647,0.599,0.811
FTGSTYRVGDT [FN1_Y106_N104S_YF],0.425,0.492,0.37,0.631,0.484,0.41,0.551,0.783,0.404,0.448,0.703,0.384,0.431,0.731,0.443,0.482
FVIISYVLIIR [OR1D2_Y218],0.672,0.566,0.517,0.994,0.517,0.561,0.527,0.503,0.508,0.457,0.733,0.325,0.727,4.69,1.89,4.04
FVSIVYSDSGE [TSC2_Y1650_N1651S],0.444,0.403,0.506,0.766,0.591,0.439,0.37,0.952,0.532,0.529,1.16,0.582,0.717,0.928,0.83,0.967
FYRKVYHLASV [RBL1_Y796],0.555,0.779,0.444,0.853,0.296,0.447,0.39,0.667,0.422,0.416,0.745,0.566,0.673,1.15,0.715,1.31
GAPATYKGDAR [CACNA1A_Y1013_E1014K],0.419,0.319,0.366,0.432,0.401,0.332,0.384,0.489,0.384,0.568,0.52,0.422,0.452,1.09,0.483,1.17
